Assay results from paper PMC5383425, “Differential CLE peptide perception by plant receptors implicated from structural and functional analyses of TDIF-TDR interactions” (PLoS ONE, 2017).
Square brackets hold non-standard residues; d marks the D form. Ends that are not written are not given here. Hyp = O=C(O)[C@@H]1C[C@@H](O)CN1

Key:
Experiment in all cases: ITC; 0.5–1 mM peptide titrated into 10–40 μM ecdTDR; 25°C; 10 mM sodium citrate, 100 mM NaCl, pH 5.5; fitted to one set of binding sites; MicroCal Auto-iTC200
Conditions in all cases: both partners purified
[1] = target: T1, ecdTDR F281 alanine mutant (Arabidopsis thaliana, UniProt Q9FII5 30-642, alanine substitution of F281)
T1 construct: TDR/PXY of A. thaliana, extracellular domain, residues 30-642; The text says only 'mutational analyses' of F281; source: High Five insect cells (baculovirus), secreted, purified as the wild type (Ni-NTA, size-exclusion chromatography)
T1 sequence (looked up): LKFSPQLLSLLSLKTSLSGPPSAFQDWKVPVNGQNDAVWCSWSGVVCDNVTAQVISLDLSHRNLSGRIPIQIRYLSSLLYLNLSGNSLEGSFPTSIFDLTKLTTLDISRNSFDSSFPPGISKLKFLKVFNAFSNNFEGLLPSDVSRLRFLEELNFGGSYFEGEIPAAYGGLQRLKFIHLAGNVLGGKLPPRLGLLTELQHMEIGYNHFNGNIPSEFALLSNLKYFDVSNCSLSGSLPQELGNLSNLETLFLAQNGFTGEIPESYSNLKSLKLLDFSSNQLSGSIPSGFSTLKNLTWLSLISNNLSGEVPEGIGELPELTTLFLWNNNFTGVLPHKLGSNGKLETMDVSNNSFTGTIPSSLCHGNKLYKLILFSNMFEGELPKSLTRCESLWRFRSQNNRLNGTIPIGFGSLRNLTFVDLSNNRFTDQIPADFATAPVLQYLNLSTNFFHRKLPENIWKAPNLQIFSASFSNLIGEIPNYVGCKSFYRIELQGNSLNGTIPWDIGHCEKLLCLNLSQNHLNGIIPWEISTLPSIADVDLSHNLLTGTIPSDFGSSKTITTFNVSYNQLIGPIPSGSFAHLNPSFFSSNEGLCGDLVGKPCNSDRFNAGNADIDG

[2] = target: T2, ecdTDR E231A mutant (Arabidopsis thaliana, UniProt Q9FII5 30-642, E231A)
T2 construct: TDR/PXY of A. thaliana, extracellular domain, residues 30-642; source: High Five insect cells (baculovirus), secreted, purified as the wild type (Ni-NTA, size-exclusion chromatography)
T2 sequence (looked up): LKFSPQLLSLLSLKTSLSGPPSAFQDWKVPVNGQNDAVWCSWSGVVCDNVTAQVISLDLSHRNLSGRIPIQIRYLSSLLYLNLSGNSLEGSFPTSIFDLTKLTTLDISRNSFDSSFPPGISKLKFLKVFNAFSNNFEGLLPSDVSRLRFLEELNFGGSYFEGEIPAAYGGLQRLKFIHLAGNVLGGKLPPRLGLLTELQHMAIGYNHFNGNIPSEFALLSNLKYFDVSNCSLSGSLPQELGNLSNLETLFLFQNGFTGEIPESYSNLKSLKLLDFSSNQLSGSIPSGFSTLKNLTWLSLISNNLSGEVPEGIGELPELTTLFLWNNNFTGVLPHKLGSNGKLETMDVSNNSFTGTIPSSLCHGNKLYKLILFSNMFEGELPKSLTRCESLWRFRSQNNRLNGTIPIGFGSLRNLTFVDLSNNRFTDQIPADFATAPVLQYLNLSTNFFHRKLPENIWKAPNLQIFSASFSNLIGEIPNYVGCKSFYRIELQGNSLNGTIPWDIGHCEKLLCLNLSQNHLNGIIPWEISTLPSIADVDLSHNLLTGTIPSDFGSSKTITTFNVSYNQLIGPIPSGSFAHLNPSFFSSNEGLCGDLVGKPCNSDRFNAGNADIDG

[3] = target: T3, ecdTDR R138E mutant (Arabidopsis thaliana, UniProt Q9FII5 30-642, R138E)
T3 construct: TDR/PXY of A. thaliana, extracellular domain, residues 30-642; source: High Five insect cells (baculovirus), secreted, purified as the wild type (Ni-NTA, size-exclusion chromatography)
T3 sequence (looked up): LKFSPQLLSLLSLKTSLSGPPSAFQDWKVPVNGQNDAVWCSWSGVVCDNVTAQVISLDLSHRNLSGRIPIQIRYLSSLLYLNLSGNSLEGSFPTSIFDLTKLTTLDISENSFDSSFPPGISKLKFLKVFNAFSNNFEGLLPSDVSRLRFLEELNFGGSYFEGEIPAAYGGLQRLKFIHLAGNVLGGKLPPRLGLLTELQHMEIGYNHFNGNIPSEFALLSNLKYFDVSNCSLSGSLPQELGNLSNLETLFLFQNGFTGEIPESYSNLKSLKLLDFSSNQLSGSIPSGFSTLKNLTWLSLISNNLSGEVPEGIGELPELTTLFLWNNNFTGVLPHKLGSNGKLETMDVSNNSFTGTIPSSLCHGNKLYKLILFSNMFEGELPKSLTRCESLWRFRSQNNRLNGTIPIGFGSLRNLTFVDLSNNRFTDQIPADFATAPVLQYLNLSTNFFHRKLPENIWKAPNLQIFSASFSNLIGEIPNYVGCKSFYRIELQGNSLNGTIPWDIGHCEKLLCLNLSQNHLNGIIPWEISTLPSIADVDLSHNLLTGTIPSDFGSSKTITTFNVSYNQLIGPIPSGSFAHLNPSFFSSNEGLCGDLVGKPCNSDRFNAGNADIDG

[4] = target: T4, ecdTDR R423A mutant (Arabidopsis thaliana, UniProt Q9FII5 30-642, R423A)
T4 construct: TDR/PXY of A. thaliana, extracellular domain, residues 30-642; source: High Five insect cells (baculovirus), secreted, purified as the wild type (Ni-NTA, size-exclusion chromatography)
T4 sequence (looked up): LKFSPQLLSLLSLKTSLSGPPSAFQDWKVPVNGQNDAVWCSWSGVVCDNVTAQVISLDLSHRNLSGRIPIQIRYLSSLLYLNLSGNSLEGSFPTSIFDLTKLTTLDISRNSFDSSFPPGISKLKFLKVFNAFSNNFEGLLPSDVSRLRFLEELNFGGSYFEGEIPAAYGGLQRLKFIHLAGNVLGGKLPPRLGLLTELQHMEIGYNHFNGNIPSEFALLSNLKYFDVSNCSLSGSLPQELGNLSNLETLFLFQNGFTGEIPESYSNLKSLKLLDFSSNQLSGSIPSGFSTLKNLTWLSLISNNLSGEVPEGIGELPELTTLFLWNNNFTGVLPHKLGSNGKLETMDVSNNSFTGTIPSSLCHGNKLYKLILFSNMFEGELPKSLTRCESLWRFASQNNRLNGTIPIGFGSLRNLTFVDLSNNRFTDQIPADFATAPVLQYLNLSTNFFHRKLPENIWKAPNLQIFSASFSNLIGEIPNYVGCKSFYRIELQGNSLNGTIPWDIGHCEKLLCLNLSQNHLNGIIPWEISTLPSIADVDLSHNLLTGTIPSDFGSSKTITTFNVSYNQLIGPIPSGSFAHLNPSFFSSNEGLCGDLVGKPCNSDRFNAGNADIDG

Measured: binding result

B1: Tracheary Element Differentiation Inhibitory Factor (TDIF) peptide (peptide)
peptide: HEV[Hyp]SG[Hyp]NPISN
notes: TDIF, the 12-residue CLE peptide processed from CLE41 and CLE44 of A. thaliana; printed as HEV(Hyp)SG(Hyp)NPISN; numbers count on: the 12-residue peptide; CLE44 encodes the same peptide; also called wild type TDIF; wtTDIF; source: synthetic peptide (peptide 2.0)
binds: all assays above
